Patent publication US20090208416A1

Columns and labels:
[1] = target: NKG2A on cynomolgus monkey NK cells (cynomolgus monkey) (UniProt Q68VD2); test: FACS cynomolgus whole blood, mean of 10 animals
[2] = target: NKG2A on rhesus monkey (Macaca mulatta) NK cells (rhesus monkey (Macaca mulatta)) (UniProt Q9MZJ3); test: FACS rhesus whole blood, animal R00099
[3] = target: NKG2A on rhesus monkey (Macaca mulatta) NK cells (rhesus monkey (Macaca mulatta)) (UniProt Q9MZJ3); test: FACS rhesus whole blood, animal R00093
[4] = target: NKG2A on rhesus monkey (Macaca mulatta) NK cells (rhesus monkey (Macaca mulatta)) (UniProt Q9MZJ3); test: FACS rhesus whole blood, animal R00025
[5] = target: NKG2A on rhesus monkey (Macaca mulatta) NK cells (rhesus monkey (Macaca mulatta)) (UniProt Q9MZJ3); test: FACS rhesus whole blood, animal R00041
[6] = target: NKG2A on cynomolgus monkey NK cells (cynomolgus monkey) (UniProt Q68VD2); test: FACS cynomolgus whole blood, animal T788
[7] = target: NKG2A on rhesus monkey (Macaca mulatta) NK cells (rhesus monkey (Macaca mulatta)) (UniProt Q9MZJ3); test: FACS rhesus whole blood, animal R00013
[8] = target: NKG2A on rhesus monkey (Macaca mulatta) NK cells (rhesus monkey (Macaca mulatta)) (UniProt Q9MZJ3); test: FACS rhesus whole blood, animal R00101
[9] = target: NKG2A on rhesus monkey (Macaca mulatta) NK cells (rhesus monkey (Macaca mulatta)) (UniProt Q9MZJ3); test: FACS rhesus whole blood, animal R00085
[10] = target: NKG2A on rhesus monkey (Macaca mulatta) NK cells (rhesus monkey (Macaca mulatta)) (UniProt Q9MZJ3); test: FACS rhesus whole blood, animal R00061
[11] = target: NKG2A on rhesus monkey (Macaca mulatta) NK cells (rhesus monkey (Macaca mulatta)) (UniProt Q9MZJ3); test: FACS rhesus whole blood, animal R00055
[12] = target: NKG2A on rhesus monkey (Macaca mulatta) NK cells (rhesus monkey (Macaca mulatta)) (UniProt Q9MZJ3); test: FACS rhesus whole blood, animal R00023
[13] = target: NKG2A on cynomolgus monkey NK cells (cynomolgus monkey) (UniProt Q68VD2); test: FACS cynomolgus whole blood, animal 1221
[14] = target: NKG2A on cynomolgus monkey NK cells (cynomolgus monkey) (UniProt Q68VD2); test: FACS cynomolgus whole blood, animal T270
[15] = target: NKG2A on cynomolgus monkey NK cells (cynomolgus monkey) (UniProt Q68VD2); test: FACS cynomolgus whole blood, animal AL389
[16] = target: NKG2A on rhesus monkey (Macaca mulatta) NK cells (rhesus monkey (Macaca mulatta)) (UniProt Q9MZJ3); test: FACS rhesus whole blood, animal R00077
[17] = target: NKG2A on cynomolgus monkey NK cells (cynomolgus monkey) (UniProt Q68VD2); test: FACS cynomolgus whole blood, animal M859
[18] = target: NKG2A on rhesus monkey (Macaca mulatta) NK cells (rhesus monkey (Macaca mulatta)) (UniProt Q9MZJ3); test: FACS rhesus whole blood, animal R00037
[19] = target: NKG2A on rhesus monkey (Macaca mulatta) NK cells (rhesus monkey (Macaca mulatta)) (UniProt Q9MZJ3); test: FACS rhesus whole blood, animal 34459
[20] = target: NKG2A on rhesus monkey (Macaca mulatta) NK cells (rhesus monkey (Macaca mulatta)) (UniProt Q9MZJ3); test: FACS rhesus whole blood, mean over animals
[21] = target: NKG2A on cynomolgus monkey NK cells (cynomolgus monkey) (UniProt Q68VD2); test: FACS cynomolgus whole blood, animal AL303
[22] = target: NKG2A on cynomolgus monkey NK cells (cynomolgus monkey) (UniProt Q68VD2); test: FACS cynomolgus whole blood, animal AL210
[23] = target: NKG2A on cynomolgus monkey NK cells (cynomolgus monkey) (UniProt Q68VD2); test: FACS cynomolgus whole blood, animal R390
[24] = target: NKG2A on rhesus monkey (Macaca mulatta) NK cells (rhesus monkey (Macaca mulatta)) (UniProt Q9MZJ3); test: FACS rhesus whole blood, animal O967
[25] = target: NKG2A on rhesus monkey (Macaca mulatta) NK cells (rhesus monkey (Macaca mulatta)) (UniProt Q9MZJ3); test: FACS rhesus whole blood, animal R99273
[26] = target: NKG2A on rhesus monkey (Macaca mulatta) NK cells (rhesus monkey (Macaca mulatta)) (UniProt Q9MZJ3); test: FACS rhesus whole blood, animal R00007
[27] = target: NKG2A on rhesus monkey (Macaca mulatta) NK cells (rhesus monkey (Macaca mulatta)) (UniProt Q9MZJ3); test: FACS rhesus whole blood, animal R00073 (5.6 kg)
[28] = target: NKG2A on cynomolgus monkey NK cells (cynomolgus monkey) (UniProt Q68VD2); test: FACS cynomolgus whole blood, animal AK565
[29] = target: NKG2A on rhesus monkey (Macaca mulatta) NK cells (rhesus monkey (Macaca mulatta)) (UniProt Q9MZJ3); test: FACS rhesus whole blood, animal 31828
[30] = target: NKG2A on rhesus monkey (Macaca mulatta) NK cells (rhesus monkey (Macaca mulatta)) (UniProt Q9MZJ3); test: FACS rhesus whole blood, animal R00073 (6.1 kg)
[31] = target: NKG2A on cynomolgus monkey NK cells (cynomolgus monkey) (UniProt Q68VD2); test: FACS cynomolgus whole blood, animal AK729

Chain of UniProt Q68VD2 (Q68VD2 entry or part of it): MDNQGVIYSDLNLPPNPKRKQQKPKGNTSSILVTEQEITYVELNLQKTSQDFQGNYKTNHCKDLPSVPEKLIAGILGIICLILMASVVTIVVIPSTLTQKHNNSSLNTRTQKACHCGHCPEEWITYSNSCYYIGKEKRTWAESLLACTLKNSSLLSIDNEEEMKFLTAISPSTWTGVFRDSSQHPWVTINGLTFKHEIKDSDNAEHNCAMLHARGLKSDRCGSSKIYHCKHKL
Chain of UniProt Q9MZJ3 (Q9MZJ3 whole entry): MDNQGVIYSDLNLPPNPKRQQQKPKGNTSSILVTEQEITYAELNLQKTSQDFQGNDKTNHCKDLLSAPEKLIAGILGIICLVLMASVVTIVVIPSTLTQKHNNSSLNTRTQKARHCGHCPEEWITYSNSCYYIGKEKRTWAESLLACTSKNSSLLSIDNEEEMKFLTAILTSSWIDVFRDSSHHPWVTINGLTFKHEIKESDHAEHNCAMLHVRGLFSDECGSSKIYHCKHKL

mouse IgG2b isotype control (antibody) gave a % NK+ (Mean) [1] of 0.4%, an MFI (Mean) [1] of 0.7 and a % NK+ [2] of 0.3%. For the same substance, the MFI [2] was 0.5, the % NK+ [3] was 0.4% and the MFI [3] was 0.6. For the same substance, the % NK+ [4] was 0.4%, the MFI [4] was 0.4 and the % NK+ [5] was 0.3%. For the same substance, the MFI [5] was 0.4, the % NK+ [6] was 0.4% and the MFI [6] was 0.6. It also gave a % NK+ [7] of 0.2%, an MFI [7] of 0.6 and a % NK+ [8] of 0.4%. The MFI [8] was 0.5, the % NK+ [9] was 0.3% and the MFI [9] was 0.7. For the same substance, the % NK+ [10] was 0.2%, the MFI [10] was 0.6 and the % NK+ [11] was 0.9%. For the same substance, the MFI [11] was 0.6, the % NK+ [12] was 0.6% and the MFI [12] was 0.3. For the same substance, the % NK+ [13] was 1.3%, the MFI [13] was 0.8 and the % NK+ [14] was 0.2%. For the same substance, the MFI [14] was 0.6, the % NK+ [15] was 0.4% and the MFI [15] was 0.8. For the same substance, the % NK+ [16] was 0.5%, the MFI [16] was 0.4 and the % NK+ [17] was 0.2%. For the same substance, the MFI [17] was 0.6, the % NK+ [18] was 0.3% and the MFI [18] was 0.5. It also gave a % NK+ [19] of 1.2%, an MFI [19] of 0.7 and a % NK+ (Mean) [20] of 0.5%. For the same substance, the MFI (Mean) [20] was 0.5, the % NK+ [21] was 0.14% and the MFI [21] was 0.7. The % NK+ [22] was 0.3%, the MFI [22] was 0.7 and the % NK+ [23] was 0.2%. The MFI [23] was 0.5, the % NK+ [24] was 0.5% and the MFI [24] was 0.7. For the same substance, the % NK+ [25] was 0.6%, the MFI [25] was 0.4 and the % NK+ [26] was 0.7%. For the same substance, the MFI [26] was 0.4, the % NK+ [27] was 0.39% and the MFI [27] was 0.4. The % NK+ [28] was 0.3%, the MFI [28] was 0.6 and the % NK+ [29] was 0.5%. For the same substance, the MFI [29] was 0.7, the % NK+ [30] was 0.3% and the MFI [30] was 0.3. For the same substance, the % NK+ [31] was 0.3% and the MFI [31] was 0.6.
